Source: patent US20230051715A1 (MABWELL THERAPEUTICS, published 2023)

T1: human C1s mutant M10 (D283I & P285A) (human, UniProt P09871 16-688)
T1 construct: The entry is the mutant itself
T1 sequence: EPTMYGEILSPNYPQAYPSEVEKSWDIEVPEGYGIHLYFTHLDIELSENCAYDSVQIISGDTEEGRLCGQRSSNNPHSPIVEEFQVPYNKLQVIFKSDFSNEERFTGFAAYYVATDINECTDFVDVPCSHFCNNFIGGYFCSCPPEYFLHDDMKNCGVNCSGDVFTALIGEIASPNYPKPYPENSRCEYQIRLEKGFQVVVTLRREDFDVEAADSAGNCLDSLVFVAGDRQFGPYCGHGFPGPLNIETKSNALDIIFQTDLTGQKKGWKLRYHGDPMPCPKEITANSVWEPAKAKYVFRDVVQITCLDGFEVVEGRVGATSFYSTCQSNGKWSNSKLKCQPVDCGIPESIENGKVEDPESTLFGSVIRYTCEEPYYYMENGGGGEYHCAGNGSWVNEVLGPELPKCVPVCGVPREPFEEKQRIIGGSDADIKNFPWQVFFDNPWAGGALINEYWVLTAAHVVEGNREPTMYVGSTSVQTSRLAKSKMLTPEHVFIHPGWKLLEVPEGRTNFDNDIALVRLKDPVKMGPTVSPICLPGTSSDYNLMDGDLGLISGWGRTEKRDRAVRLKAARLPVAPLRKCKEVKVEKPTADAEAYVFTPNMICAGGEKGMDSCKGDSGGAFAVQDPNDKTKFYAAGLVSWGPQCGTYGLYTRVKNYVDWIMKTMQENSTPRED

T2: full-length human C1s (produced in house) (human, UniProt P09871 16-688)
T2 construct: Called full-length; Partly auto-cleaved at R422-I423 on blots; also called HuC1s; Hu C1s
T2 sequence: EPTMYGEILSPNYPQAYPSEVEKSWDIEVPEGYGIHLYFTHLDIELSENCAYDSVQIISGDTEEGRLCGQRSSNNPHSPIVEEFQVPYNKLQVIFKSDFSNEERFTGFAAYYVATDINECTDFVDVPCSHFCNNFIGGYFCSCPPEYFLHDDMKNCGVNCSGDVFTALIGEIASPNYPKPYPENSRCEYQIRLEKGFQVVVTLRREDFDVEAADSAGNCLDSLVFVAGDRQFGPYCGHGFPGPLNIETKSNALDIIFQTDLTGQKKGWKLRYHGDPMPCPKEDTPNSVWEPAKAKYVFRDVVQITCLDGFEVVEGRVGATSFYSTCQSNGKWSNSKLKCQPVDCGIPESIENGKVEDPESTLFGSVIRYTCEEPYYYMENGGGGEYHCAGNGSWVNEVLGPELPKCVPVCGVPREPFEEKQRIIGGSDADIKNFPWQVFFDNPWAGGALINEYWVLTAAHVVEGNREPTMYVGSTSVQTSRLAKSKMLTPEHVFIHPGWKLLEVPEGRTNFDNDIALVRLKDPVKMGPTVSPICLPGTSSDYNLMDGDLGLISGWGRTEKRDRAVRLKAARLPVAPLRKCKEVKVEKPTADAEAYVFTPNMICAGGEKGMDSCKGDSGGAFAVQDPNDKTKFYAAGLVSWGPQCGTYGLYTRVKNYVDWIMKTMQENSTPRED

T3: human C1s deletion mutant 1 (M151) (human) (UniProt P09871)
T3 sequence: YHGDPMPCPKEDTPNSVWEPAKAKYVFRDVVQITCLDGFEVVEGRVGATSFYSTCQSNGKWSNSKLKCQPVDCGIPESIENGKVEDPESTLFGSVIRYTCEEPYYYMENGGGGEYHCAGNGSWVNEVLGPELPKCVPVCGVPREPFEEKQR

B1: Anti-C1s antibody hz2-8 (H1L2 G80A) (antibody, V domains shown)
VH: QVQLVQSGAEVKKPGASVKVSCKASGFNIKEYYMHWVRQAPEQGLEWMGWIDPENADTIYAQKFQGRVTITADTSTNTAYMELSSLRSEDTAVYYCARSRLFFAYWGQGTLVTVSS
VL: DIQMTQSPKSLSASVGDRVTITCRASQDVRTALDWYQQKPGQSPKLLIYSASYRYSGVPSRFSGSGSGTDFTLTISSLQPEDFATYYCQQQYTTPYTFGQGTKLEIKR
notes: Humanized variant with G80A in HC CDR2 (already in the entry), human IgG1 / kappa
B2: Anti-C1s antibody hz2-8 (H1L2 G80A/T82A) (antibody, V domains shown)
VH: QVQLVQSGAEVKKPGASVKVSCKASGFNIKEYYMHWVRQAPEQGLEWMGWIDPENADAIYAQKFQGRVTITADTSTNTAYMELSSLRSEDTAVYYCARSRLFFAYWGQGTLVTVSS
VL: DIQMTQSPKSLSASVGDRVTITCRASQDVRTALDWYQQKPGQSPKLLIYSASYRYSGVPSRFSGSGSGTDFTLTISSLQPEDFATYYCQQQYTTPYTFGQGTKLEIKR
notes: Humanized variant with G80A and T82A in HC CDR2 (already in the entry), human IgG1 / kappa
B3: Anti-C1s antibody 2-8 (antibody, V domains shown)
VH: EVQLQQSGAELVRPGALVKLSCKASGFNIKEYYMHWVKQRPEQGLEWIGWIDPENGDTIYDPKFQGKASITADTSSNTAYLQLSSLTSEDTAVYYCARSRLFFAYWGQGTLVTVSA
VL: DIVMTQSHKFMSTSVGDRVSFTCKASQDVRTAVDWYQQKPGQSPKLLIYSASYRYTGVPDRFTGTGSGTDFTFTISSVQAEDLAVYFCQQQYTTPYTFGGGTKLEIKT
notes: the HC/LC entries may hold it too; also called clone 2-8
B4: Anti-C1s antibody hz2-7(H1L2) (antibody, V domains shown)
VH: EVQLLESGGGLVQPGGSLRLSCAASGFTFSNYFMNWVRQAPGKGLEWVSEIRLKFTNYATHYADSVKGRFTISRDDSKSTLYLQMNSLRAEDTAVYYCTRDYGSRNGYFDYWGQGTLVTVSS
VL: DIVMTQTPLSLPVTPGEPASISCRSSKSLLHSNGNTFLYWFLQKPGQSPQLLIYRMSNLASGVPDRFSGSGSGTDFTLKISRVEAEDVGVYYCMQHLEYPYTFGGGTKLEIKR
notes: Humanized, human IgG1 / kappa; also called hz2-7(1L2)
B5: Anti-C1s antibody 2-7 (antibody, human IgG1, kappa, V domains shown)
VH: EVKLEESGGGLVPPGGSMKLSCVASGFTFSNYFMNWVRQSPEKGLEWVAEIRLKFTNYATHYAESVEGRFTISRDDSKSSVYLQMNNLRAEDTGIYYCTRDYGSRNGYFDYWGQGTTLTVSS
VL: DIVMTQAAPSVPVTPGESVSISCRSSKSLLHSNGNTFLYWFLQRPGQSPQLLIYRMSNLASGVPDRFSGSGSGTAFTLRVSRVEAEDVGIYYCMQHLEYPYTFGGGTKLEIKT
notes: the HC/LC entries may hold it too; also called clone 2-7

Columns and labels:
[1] = target: T1, human C1s mutant M10 (D283I & P285A); assay: ELISA, plate coated with human C1s mutant M10: D283I, P285A, OD450nm
Description: (§1) ELISA was carried out by first coating 96-well plates with 200 ng/well of full-length or truncated C1s proteins overnight. The next morning, plates were blocked with SuperBlock T20 blocking buffer (Thermo Scientific 37536) for 1 h with gentle shaking. Then, various concentrations of anti-C1s antibodies diluted in SuperBlock T20 blocking buffer were added to the plates and incubated for 1 h with gentle shaking. Mouse IgG (Sigma-Aldrich 15381) and human IgG1 (BioXCell BP0297) were used as negative controls. The plates were washed before incubating with HRP conjugated secondary antibodies diluted in SuperBlock T20 blocking buffer (goat anti-mouse IgG (H+L) cross-adsorbed secondary antibody HRP (Invitrogen G-21040) or goat anti-human IgG antibody, HRP conjugate (Millipore AP309P)) for 1 h with gentle shaking. At last, the plates were washed and color developed with ELISA liquid HRP substrate (Sigma-Aldrich), followed by stopping the reaction with addition of 1M H₂SO₄ in the same volume as the ELISA liquid substrate. Bound antibody was measured by absorbance at OD₄₅₀ₙₘ.
Binding of anti-C1s antibodies to mutants M1-M20 of human C1s was measured by ELISA as described in Example 4, and results are shown in FIGS. 6B-6U. All anti-C1s humanized variants including hz2-7(H1L2), hz2-8(H1L2 G80A) and hz2-8(H1L2 G80A/T82A) maintained strong binding properties to the majority (16 out of 20) of C1s mutants including M1 (FIG. 6B), M2 (FIG. 6C), M3 (FIG. 6D). M4 (FIG. 6E), M7 (FIG. 6H), M8 (FIG. 6I), M10 (FIG. 6K), M11 (FIG. 6L), M12 (FIG. 6M), M13 (FIG. 6N), M15 (FIG. 6P), M16 (FIG. 6Q), M17 (FIG. 6R), M18 (FIG. 6S), M19 (FIG. 6T) and M20 (FIG. 6U).

[2] = target: T2, full-length human C1s (produced in …); assay: ELISA, plate coated with 200 ng/well full-length HuC1s, OD450nm
Description: as §1

[3] = target: T3, human C1s deletion mutant 1 (M151) (human); assay: ELISA, plate coated with 200 ng/well HuC1s(M151), OD450nm

| Binder | EC50 [1] [ng/mL] | EC50 [2] [ng/mL] | EC50 [3] [µg/mL] |
| --- | --- | --- | --- |
| B1 | 5 | – | – |
| B2 | 6 | – | – |
| B3 | – | 8 | 0.018 |
| B4 | 6 | 5 | 0.008 |
| B5 | – | 6 | 0.013 |
